Experimental data taken from publication PMC6265302, “Widespread bacterial lysine degradation proceeding via glutarate and L-2-hydroxyglutarate” (Nature Communications, 2018).

Molecular target: the molecule itself
Experiment: crystal structure; CsiD at 13 mg/mL, sitting drop vapour diffusion, 18 °C; apo and with glutarate, succinate or N-oxalylglycine; symmetry P42(1)2, two copies in the asymmetric unit, tetramer generated by crystallographic symmetry

B1: CsiD (carbon starvation induced protein D), glutarate hydroxylase (enzyme, Escherichia coli, UniProt P76621 1-325, looked up)
chain: MNALTAVQNNAVDSGQDYSGFTLTPSAQSPRLLELTFTEQTTKQFLEQVAEWPVQALEYKSFLRFRVAKILDDLCANQLQPLLLKTLLNRAEGALLINAVGVDDVKQADEMVKLATAVAHLIGRSNFDAMSGQYYARFVVKNVDNSDSYLRQPHRVMELHNDGTYVEEITDYVLMMKIDEQNMQGGNSLLLHLDDWEHLDNYFRHPLARRPMRFAAPPSKNVSKDVFHPVFDVDQQGRPVMRYIDQFVQPKDFEEGVWLSELSDAIETSKGILSVPVPVGKFLLINNLFWLHGRDRFTPHPDLRRELMRQRGYFAYASNHYQTHQ
notes: CsiD of Escherichia coli, ORF amplified from E. coli BW25113 and inserted into pET28a; crystals were apo or held glutarate, succinate or N-oxalylglycine; also called glutarate-2-hydroxylase; G-2-H; source: E. coli BL21 (DE3), purified (Ni-NTA)
stoichiometry N: 4
